Source: the nanobody polyreactivity screen of Harvey et al. (2022)

Assay: yeast display, Sf9 membrane polyspecificity reagent, FACS + sequencing; frameworks hold sequencing errors
Summary of the method: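 Nanobodies came from a synthetic yeast display library in Saccharomyces cerevisiae BJ5465, induced with galactose for 36–48 hours and stained for 1 hour at 4 °C with 10% biotinylated, detergent-solubilized Sf9 membrane reagent. Cells were enriched on streptavidin microbeads and then FACS-sorted, with low and high (top ~1%) gates set on anti-HA fluorescence for expression and streptavidin fluorescence for reagent binding. Each polyreactivity label reflects the gate a clone came from. Genes were amplified by colony PCR, sequenced by MiSeq 2 × 250 and filtered by CDR length.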

Row | Sequence | polyreactivity (PSR sort gate)
1 | QVQLVESGGGLVQAGGSLRLSCAASGSIFWYNAMGWYRQAPGKERELVAAIRWRGGSTYYADSVKGRFTISRDNAKNTVYVQMSSLKPEDTAVYYCAAQVYVSQLYTSYYYWGQGTQVTVSS | high polyreactivity
2 | QVQLVESGGGLVQAGGSLRLSCAASGSIFWYYAMGWYRQAPGKERELVAAISISGSTYYADSVKGRFTISRDNAKNTVYLQMNSLKPEDTAVYYCAARKFFWRSNYDYWGQGTQVTVSS | low polyreactivity
3 | QVQLVESGGGLVQAGGSLRLSCAASGSIFWYYAMGWYRQAPGKERELVASISSSGGSTYYADSVKGRFTISRDNAKNTVYLQMNSLKPEYTAVYYCAKRTNWGYWYNSWGQGTQVTVSS | high polyreactivity
4 | QVQLVESGGGLVQAGGSLRLSCAASGSIFWYYAMGWYRQAPGKERELVASITSAGSTNYADSVKGRFTISRDNAKNTVYLQMNSLKPEDTAVYYCNTDDDSSSTGYYSWGQGTQVTVSS | low polyreactivity
5 | QVQLVESGGGLVQAGGSLRLSCAASGSIFYANTLGWYRQAPGTERELVAAINWSGGRTYYADSVKGRFTISRDNAKNTVYLQMNSLKPEDTAVYYCAASATYLYKYPVWGYDYWGQGTQVTVSS | high polyreactivity
6 | QVQLVESGGGLVQAGGSLRLSCAASGSIFYANTMGWYRQAPGKEREFVAAITWSGGSTYYADSVKGRFTISRDNAKNTVYLQMNSLKPEDTAVYYCAAEEQRYWYEYYYWGQGTQVTVSS | high polyreactivity
7 | QVQLVESGGGLVQAGGSLRLSCAASGSIFYAYAMGWYRQAPGKEMELVAAIDTSGGRTYYADSVKGRFTISRDNAKNTVYLQLNSLKPEDTAVYYCDAECPCYNEHYYWGQGTQVTVSS | high polyreactivity
8 | QVQLVESGGGLVQAGGSLRLSCAASGSIFYAYAMGWYRQAPGKERELVAAIRSSDSRTYYADSVKGRFTISRDNAKNTVYLQMNSLKPEDTAVYYCAADGSRKVKFDYWGQGTQVTVSS | high polyreactivity
9 | QVQLVESGGGLVQAGGSLRLSCAASGSIFYDNAMGWYRQAPGKERELVAVISNSGRTDYADSVKGRFTISRDNAKNTVYLQMNSLKPEDTAVYYCAAVVQGTTVWWGYDYWGQGTQVTVSS | low polyreactivity
10 | QVQLVESGGGLVQAGGSLRLSCAASGSIFYENMGWYRQAPGKERELVASISWSGTSTYADSVKGRFTISRDNAKNTVYLQMNSLKPEDTAVYYCAAGKNGYTYSRSYSYGYWGQGTQVTVSS | high polyreactivity
11 | QVQLVESGGGLVQAGGSLRLSCAASGSIFYEYAMGWYRQAPGKEREFVAAISSSGGSTYYADSVKGRFTISRDNAKNTVYLQMNSLKPEDTAVYYCAADIYYYLWGLYYWGQGTQVTVSS | low polyreactivity
12 | QVQLVESGGGLVQAGGSLRLSCAASGSIFYFNAMGWYRQAPGKERELVAAINISGSSTSYADSVKGRFTISRDNAKNTVYLQMNSLKPEDTAVYYCYAGPYTYLHWNQAISRYYYWGQGTQVTVSS | low polyreactivity
13 | QVQLVESGGGLVQAGGSLRLSCAASGSIFYFNAMGWYRQAPGKERELVAAITYSGGSTYYADSVKGRFTISRDNAKNTFYLQMNILKPEDTAVYYCAAERRTFPLRIFDYWGQGTQVTVSS | low polyreactivity
14 | QVQLVESGGGLVQAGGSLRLSCAASGSIFYFNGMGWYRQAPGKERELVAAITWGDGSTYYADSVKGRFTISRDNAKNTVYLQMNSLKREDNAVYYCAAVLLIFKYVPRYDYWGQGTQVTVSS | low polyreactivity
15 | QVQLVESGGGLVQAGGSLRLSCAASGSIFYGHAMGWYRQAPGKERELVATISWSTGSTYYADSVKGRFTISRDHAKNTVYLQMNSLKPEDTAVYYCAKEYFSKQWRGGYWGQGTQVTVSS | high polyreactivity
16 | QVQLVESGGGLVQAGGSLRLSCAASGSIFYGNTMGWYRQAPGKERELVAAIRSVGRTYYADSVKGRFTISRDNAKNTVYLQMNSLKPEDTAVYYCAADPRSYFTSEYWGQGTQVTVSS | high polyreactivity
17 | QVQLVESGGGLVQAGGSLRLSCAASGSIFYGYAMAWYRQAPGKERELVAAITRSGGSTYYADSVKGRFTISRDNAKNTVYLQMNSLKPEDTAVYYCAAVSRSRRMDYWGQGTQVTVSS | high polyreactivity
